These are literature values, as cited in article PMC10451079.

pKd: −log10 of the molar value.

In general, pKd refers to the Kd on a negative log10 scale, so that one unit is a factor of ten.

Among the targets are MC1R (UniProt Q01726); MC3R (UniProt P41968); megalin (Homo sapiens) (UniProt P98164).
A further data set has as its target NGALR (Mus musculus) (UniProt Q9D9E0). Put plainly: ligand-cell binding, Scatchard.
For a further data set, the target named is MC4R (UniProt P32245). Description: saturation and competition binding.
The target in data set [1] is LRP2 (megalin) (Homo sapiens) (UniProt P98164). Description: SPR. On the technique in general: In SPR one partner is held on a chip, and binding of the other changes the refractive index at the surface.
The target of data set [2] is NGALR 1-105 (Homo sapiens) (UniProt Q8WUG5).
Sequence of UniProt Q8WUG5 (Q8WUG5 1-105): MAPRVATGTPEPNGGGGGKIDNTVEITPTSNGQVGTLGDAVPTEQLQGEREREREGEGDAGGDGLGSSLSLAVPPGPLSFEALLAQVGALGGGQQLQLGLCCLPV

Sequence of UniProt P41968 (P41968 whole entry): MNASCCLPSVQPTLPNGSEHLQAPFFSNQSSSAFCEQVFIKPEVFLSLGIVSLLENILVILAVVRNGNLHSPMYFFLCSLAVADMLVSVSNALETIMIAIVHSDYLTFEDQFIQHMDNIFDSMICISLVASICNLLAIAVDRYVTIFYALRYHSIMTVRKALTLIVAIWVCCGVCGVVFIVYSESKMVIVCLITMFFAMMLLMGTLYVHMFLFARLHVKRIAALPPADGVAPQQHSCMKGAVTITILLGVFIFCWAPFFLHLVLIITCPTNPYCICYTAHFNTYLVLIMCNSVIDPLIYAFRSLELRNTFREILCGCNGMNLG
Sequence of UniProt P32245 (P32245 whole entry): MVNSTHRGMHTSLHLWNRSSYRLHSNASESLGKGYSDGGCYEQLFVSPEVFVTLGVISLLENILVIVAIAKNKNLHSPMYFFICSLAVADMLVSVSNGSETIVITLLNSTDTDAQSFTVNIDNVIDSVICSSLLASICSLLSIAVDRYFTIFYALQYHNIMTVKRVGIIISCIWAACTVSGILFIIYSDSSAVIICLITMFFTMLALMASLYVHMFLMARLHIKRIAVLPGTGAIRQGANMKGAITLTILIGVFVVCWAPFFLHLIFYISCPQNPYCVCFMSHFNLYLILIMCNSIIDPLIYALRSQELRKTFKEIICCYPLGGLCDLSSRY
Sequence of UniProt Q9D9E0 (Q9D9E0 whole entry): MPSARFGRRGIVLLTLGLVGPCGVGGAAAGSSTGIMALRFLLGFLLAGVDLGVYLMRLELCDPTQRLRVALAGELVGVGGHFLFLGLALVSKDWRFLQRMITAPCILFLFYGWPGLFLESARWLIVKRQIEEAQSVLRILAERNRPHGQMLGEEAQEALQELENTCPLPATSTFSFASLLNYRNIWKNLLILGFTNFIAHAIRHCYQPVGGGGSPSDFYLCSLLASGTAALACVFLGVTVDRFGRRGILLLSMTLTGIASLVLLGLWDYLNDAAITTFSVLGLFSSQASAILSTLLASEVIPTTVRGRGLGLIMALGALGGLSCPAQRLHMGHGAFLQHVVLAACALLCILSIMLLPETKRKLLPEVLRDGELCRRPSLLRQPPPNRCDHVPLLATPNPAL
Sequence of UniProt Q01726 (Q01726 whole entry): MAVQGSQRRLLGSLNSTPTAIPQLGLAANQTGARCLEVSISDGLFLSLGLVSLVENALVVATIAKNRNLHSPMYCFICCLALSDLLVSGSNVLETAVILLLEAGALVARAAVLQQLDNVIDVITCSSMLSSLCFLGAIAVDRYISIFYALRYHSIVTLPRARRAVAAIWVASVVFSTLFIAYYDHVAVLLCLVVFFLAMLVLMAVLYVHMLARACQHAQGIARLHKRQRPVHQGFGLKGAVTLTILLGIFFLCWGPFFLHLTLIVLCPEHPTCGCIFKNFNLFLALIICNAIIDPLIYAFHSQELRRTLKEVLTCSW

LCN2 (24p3) (from UniProt P11672): the pKd in the data set with NGALR (Mus musculus) was 10.04.
For LCN2 (from UniProt P11672), the values for the pKd with MC4R, with MC1R and with MC3R were 7.29, 7.06 and 7.09, respectively.
Consider LCN2 (from UniProt P80188), for which the pKd in data set [1] is 7.22.
In the case of “LCN2 with ferric-enterobactin (from UniProt P80188)”, in data set [2], the negative-log Kd (pKd) is 4.70.
For the substance α1M (from UniProt P02760), the negative-log Kd (pKd) in the data set with megalin (Homo sapiens) was 6.38.
